# Patent publication US20260207767A1 (ANAVEON, published 2026)
# T1: IL-2R CD122-CD132 on Jurkat-PD1+CD122+ cells (UniProt P14784 27-551; P31785 23-369)
# T1 sequence (looked up) 1: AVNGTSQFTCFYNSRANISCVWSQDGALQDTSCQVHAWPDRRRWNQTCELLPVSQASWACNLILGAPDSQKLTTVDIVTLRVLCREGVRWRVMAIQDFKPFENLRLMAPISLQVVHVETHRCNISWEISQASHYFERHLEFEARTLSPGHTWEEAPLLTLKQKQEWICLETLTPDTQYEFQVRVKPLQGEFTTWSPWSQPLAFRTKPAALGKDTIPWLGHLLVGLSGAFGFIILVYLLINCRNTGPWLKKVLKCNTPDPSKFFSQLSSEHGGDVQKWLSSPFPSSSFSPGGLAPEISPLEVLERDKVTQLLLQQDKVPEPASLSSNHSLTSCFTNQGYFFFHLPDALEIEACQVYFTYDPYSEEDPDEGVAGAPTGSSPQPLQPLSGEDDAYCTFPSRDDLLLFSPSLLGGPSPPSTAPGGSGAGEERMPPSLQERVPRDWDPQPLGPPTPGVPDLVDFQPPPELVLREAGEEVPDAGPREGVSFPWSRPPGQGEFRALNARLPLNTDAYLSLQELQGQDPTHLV
# T1 sequence (looked up) 2: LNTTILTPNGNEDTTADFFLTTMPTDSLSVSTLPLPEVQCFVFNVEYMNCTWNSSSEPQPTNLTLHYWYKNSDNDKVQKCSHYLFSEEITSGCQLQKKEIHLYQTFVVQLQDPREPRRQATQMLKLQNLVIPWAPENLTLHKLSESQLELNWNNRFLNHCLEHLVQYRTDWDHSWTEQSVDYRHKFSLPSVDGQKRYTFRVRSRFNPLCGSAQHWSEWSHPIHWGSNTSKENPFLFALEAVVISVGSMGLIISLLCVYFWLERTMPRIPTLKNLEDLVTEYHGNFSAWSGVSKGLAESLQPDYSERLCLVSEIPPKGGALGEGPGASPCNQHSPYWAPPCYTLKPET
# Legend:
# [1] = target: T1, IL-2R CD122-CD132 on Jurkat-PD1+CD122+ …; assay: cell-based or functional assay
# [2] = target: T2, recombinant hPD-1 (construct not stated) (human, UniProt Q15116 25-167, limits assumed); assay: BLI, supernatants
# T2 construct: also called huPD-1; Human PD1
# T2 sequence (Q15116 25-167 limits assumed): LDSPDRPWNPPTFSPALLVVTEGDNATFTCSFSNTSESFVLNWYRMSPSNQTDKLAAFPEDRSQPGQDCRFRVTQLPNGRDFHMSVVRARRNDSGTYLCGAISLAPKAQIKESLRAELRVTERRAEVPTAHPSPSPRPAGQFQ
# Excerpt: In order to remove an N-glycosylation site present in the CDR-L1, mutations were inserted in the CDR-L1 of 21A08. The first asparagine ([…], N) in CDR-L1, was replaced by a serine (Ser, S), Glutamine (Gln, Q), or Alanine (Ala, A).
# [3] = target: T3, cynoPD-1 His (AcroBiosystems PD1-C5223) (cynomolgus monkey, UniProt B0LAJ3 25-170); assay: SPR, Ab captured, PD-1 analyte
# T3 construct: also called cPD-1; cynomolgus PD-1 His-tagged
# T3 sequence (B0LAJ3 entry or part of it limits assumed): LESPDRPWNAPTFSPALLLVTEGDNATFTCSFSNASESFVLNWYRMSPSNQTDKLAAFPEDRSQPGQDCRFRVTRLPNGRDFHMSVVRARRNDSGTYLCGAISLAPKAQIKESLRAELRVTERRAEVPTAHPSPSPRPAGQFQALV
# Procedure: (§1) 10 mM glycine (pH 1.5) as regeneration buffer was injected to flow cells following every dissociation phase.
# [4] = target: T4, hPD-1 His-tagged (human, UniProt Q15116 25-167); assay: SPR, Ab captured, PD-1 analyte
# T4 construct: also called recombinant hPD-1 (AcroBio)
# T4 sequence (Q15116 25-167 limits assumed): as the sequence (Q15116 25-167 limits assumed) above
# Procedure: as §1
Binder,"EC50 value for pSTAT5 induction, Jurkat-PD-1+CD122+ cells [1] [nM]",Kd [2] [nM],koff [2] [s⁻¹],further results
"LTJ498 (bispecific antibody, human IgG1, lambda, L234A L235A) heavy 1: EVQLLESGGGLVQPGGSLRLSCAASGFTFSINAMTWVRQAPGKGLEWVSTISGSGFSTYYADSLKGRFTISRDNSKNTLYLQMNSLRAEDTAVYYCAKEVYGDYWGQGTLVTVSSASTKGPSVFPLAPSSKSTSGGTAALGCLVKDYFPEPVTVSWNSGALTSGVHTFPAVLQSSGLYSLSSVVTVPSSSLGTQTYICNVNHKPSNTKVDKRVEPKSCDKTHTCPPCPAPEAAGGPSVFLFPPKPKDTLMISRTPEVTCVVVDVSHEDPEVKFNWYVDGVEVHNAKTKPREEQYNSTYRVVSVLTVLHQDWLNGKEYKCKVSNKALAAPIEKTISKAKGQPREPQVYTLPPSREEMTKNQVSLTCLVKGFYPSDIAVEWESNGQPENNYKTTPPVLDSDGSFFLTSKLTVDKSRWQQGNVFSCSVMHEALHNHYTQKSLSLSPGK light: not shown heavy 2: AIRLTQSPSSFSASTGDRVTITCKASQSVDYGGGNFHLRPRDLISNINVIVLELKGSETTFMCEYADETATIVEFLNRWITFSQSIISTLTPTSSSTKKTQLQLEHLLLDLQMILNGINNYKNPKLTRMLTFKFYMPKKATELKHLQCLEEELKPLEEVLNLAQSKGGGGDSYMNWYQQKPGKAPKLLIYAASNLESGVPSRFSGSGSGTDFTLTISSLQSEDFATYYCQQSNEDPYTFGGGTKVEIKGGGGSGGGGSGGGGSEVQLVQSGAEVKKPGESLKISCKGSGYAFTNYLIEWVRQMPGKGLEWMGVINPGSGGTNYNEKFKGQVTISADKSISTAYLQWSSLKASDTAMYYCARWRGEGYYAYFDVWGQGTTVTVSSGGGGSGGGGSEVQLLESGGGLVQPGGSLRLSCAASGFTFSINAMTWVRQAPGKGLEWVSTISGSGFSTYYADSLKGRFTISRDNSKNTLYLQMNSLRAEDTAVYYCAKEVYGDYWGQGTLVTVSSASTKGPSVFPLAPSSKSTSGGTAALGCLVKDYFPEPVTVSWNSGALTSGVHTFPAVLQSSGLYSLSSVVTVPSSSLGTQTYICNVNHKPSNTKVDKRVEPKSCDKTHTCPPCPAPEAAGGPSVFLFPPKPKDTLMISRTPEVTCVVVDVSHEDPEVKFNWYVDGVEVHNAKTKPREEQYNSTYRVVSVLTVLHQDWLNGKEYKCKVSNKALAAPIEKTISKAKGQPREPQVYTLPPSREEMTKNQVSLYCLVKGFYPSDIAVEWESNGQPENNYKTTPPVLDSDGSFFLYSKLTVDKSRWQQGNVFSCSVMHEALHNHYTQKSLSLSPGK",0.24,–,–,–
"XWY176 (bispecific antibody, human IgG1, kappa, lambda, L234A L235A) heavy 1: EVQLLESGGGLVQPGGSLRLSCAASGFTFSINAMTWVRQAPGKGLEWVSTISGSGFSTYYADSLKGRFTISRDNSKNTLYLQMNSLRAEDTAVYYCAKEVYGDYWGQGTLVTVSSASTKGPSVFPLAPSSKSTSGGTAALGCLVKDYFPEPVTVSWNSGALTSGVHTFPAVLQSSGLYSLSSVVTVPSSSLGTQTYICNVNHKPSNTKVDKRVEPKSCDKTHTCPPCPAPEAAGGPSVFLFPPKPKDTLMISRTPEVTCVVVDVSHEDPEVKFNWYVDGVEVHNAKTKPREEQYNSTYRVVSVLTVLHQDWLNGKEYKCKVSNKALAAPIEKTISKAKGQPREPQVYTLPPSREEMTKNQVSLTCLVKGFYPSDIAVEWESNGQPENNYKTTPPVLDSDGSFFLTSKLTVDKSRWQQGNVFSCSVMHEALHNHYTQKSLSLSPGK light 1: not shown heavy 2: EVQLVQSGAEVKKPGESLKISCKGSGYAFTNYLIEWVRQMPGKGLEWMGVINPGSGGTNYNEKFKGQVTISADKSISTAYLQWSSLKASDTAMYYCARWRGEGYYAYFDVWGQGTTVTVSSASTKGPSVFPLAPSSKSTSGGTAALGCLVKDYFPEPVTVSWNSGALTSGVHTFPAVLQSSGLYSLSSVVTVPSSSLGTQTYICNVNHKPSNTKVDKRVEPKSCDKTHTCPPCPAPEAAGGPSVFLFPPKPKDTLMISRTPEVTCVVVDVSHEDPEVKFNWYVDGVEVHNAKTKPREEQYNSTYRVVSVLTVLHQDWLNGKEYKCKVSNKALAAPIEKTISKAKGQPREPQVYTLPPSREEMTKNQVSLYCLVKGFYPSDIAVEWESNGQPENNYKTTPPVLDSDGSFFLYSKLTVDKSRWQQGNVFSCSVMHEALHNHYTQKSLSLSPGK light 2: not shown",0.27,–,–,–
"YPW986 (bispecific antibody, human IgG1, kappa, L234A L235A) heavy 1: EVQLLESGGGLVQPGGSLRLSCAASGFTFSINAMTWVRQAPGKGLEWVSTISGSGFSTYYADSLKGRFTISRDNSKNTLYLQMNSLRAEDTAVYYCAKEVYGDYWGQGTLVTVSSASVAAPSVFIFPPSDEQLKSGTASVVCLLNNFYPREAKVQWKVDNALQSGNSQESVTEQDSKDSTYSLSSTLTLSKADYEKHKVYACEVTHQGLSSPVTKSFNRGECDKTHTCPPCPAPEAAGGPSVFLFPPKPKDTLMISRTPEVTCVVVDVSHEDPEVKFNWYVDGVEVHNAKTKPREEQYNSTYRVVSVLTVLHQDWLNGKEYKCKVSNKALAAPIEKTISKAKGQPREPQVYTLPPSREEMTKNQVSLTCLVKGFYPSDIAVEWESNGQPENNYKTTPPVLDSDGSFFLTSKLTVDKSRWQQGNVFSCSVMHEALHNHYTQKSLSLSPGK light 1: RSVLTQPPSASGTPGQRVSISCSGASSNIGSQSVFWYQQLPGTAPKLLIYSNNQRPSGVPDRFSGSKSGTSASLAISGLRSEDEADYYCAAWDDSLSIWVFGGGTKLTVLSSASTKGPSVFPLAPSSKSTSGGTAALGCLVKDYFPEPVTVSWNSGALTSGVHTFPAVLQSSGLYSLSSVVTVPSSSLGTQTYICNVNHKPSNTKVDKRVEPKSC heavy 2: EVQLVQSGAEVKKPGESLKISCKGSGYAFTNYLIEWVRQMPGKGLEWMGVINPGSGGTNYNEKFKGQVTISADKSISTAYLQWSSLKASDTAMYYCARWRGEGYYAYFDVWGQGTTVTVSSASTKGPSVFPLAPSSKSTSGGTAALGCLVKDYFPEPVTVSWNSGALTSGVHTFPAVLQSSGLYSLSSVVTVPSSSLGTQTYICNVNHKPSNTKVDKRVEPKSCDKTHTCPPCPAPEAAGGPSVFLFPPKPKDTLMISRTPEVTCVVVDVSHEDPEVKFNWYVDGVEVHNAKTKPREEQYNSTYRVVSVLTVLHQDWLNGKEYKCKVSNKALAAPIEKTISKAKGQPREPQVYTLPPSREEMTKNQVSLYCLVKGFYPSDIAVEWESNGQPENNYKTTPPVLDSDGSFFLYSKLTVDKSRWQQGNVFSCSVMHEALHNHYTQKSLSLSPGK light 2: not shown",43.9,–,–,–
"21A08Q (antibody, V domains shown, position not given) VH: EVQLLESGGGLVQPGGSLRLSCAASGFTFSINAMTWVRQAPGKGLEWVSTISGSGFSTYYADSLKGRFTISRDNSKNTLYLQMNSLRAEDTAVYYCAKEVYGDYWGQGTLVTVSS VL: not shown",–,3.39,0.000267,–
"21A08A (antibody, V domains shown, position not given) VH: EVQLLESGGGLVQPGGSLRLSCAASGFTFSINAMTWVRQAPGKGLEWVSTISGSGFSTYYADSLKGRFTISRDNSKNTLYLQMNSLRAEDTAVYYCAKEVYGDYWGQGTLVTVSS VL: not shown",–,1.81,0.000181,Kd [3]: 1.7 nM; koff [3]: 9.6e-05 s⁻¹; kon [3]: 56000 M⁻¹ s⁻¹; Kd [4]: < 0.16 nM; koff [4]: < 1e-05 s⁻¹; kon [4]: 63000 M⁻¹ s⁻¹
"21A08S (antibody, V domains shown, position not given; tested as supernatant) VH: EVQLLESGGGLVQPGGSLRLSCAASGFTFSINAMTWVRQAPGKGLEWVSTISGSGFSTYYADSLKGRFTISRDNSKNTLYLQMNSLRAEDTAVYYCAKEVYGDYWGQGTLVTVSS VL: not shown",–,2.47,0.000184,–
